Test results from patent publication US20050079613.

T1: UbCH2, P62256
T1 chain: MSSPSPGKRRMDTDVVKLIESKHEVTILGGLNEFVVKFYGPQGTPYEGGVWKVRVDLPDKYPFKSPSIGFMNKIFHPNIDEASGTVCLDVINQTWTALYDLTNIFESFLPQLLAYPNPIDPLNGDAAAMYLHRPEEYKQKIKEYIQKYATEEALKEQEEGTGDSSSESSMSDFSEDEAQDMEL

T2: GST-MmUbc6
T2 sequence (Q9JJZ4 whole entry, looked up): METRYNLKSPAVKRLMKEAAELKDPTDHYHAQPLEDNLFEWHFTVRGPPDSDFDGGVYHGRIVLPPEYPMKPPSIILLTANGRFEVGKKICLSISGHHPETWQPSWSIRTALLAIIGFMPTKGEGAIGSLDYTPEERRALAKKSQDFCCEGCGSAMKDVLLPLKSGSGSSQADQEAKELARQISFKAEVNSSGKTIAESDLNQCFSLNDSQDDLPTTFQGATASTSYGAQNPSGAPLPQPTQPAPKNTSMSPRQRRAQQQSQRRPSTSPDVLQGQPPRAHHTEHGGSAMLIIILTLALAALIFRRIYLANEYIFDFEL

T3: GST-MmUbc7, P60605
T3 chain: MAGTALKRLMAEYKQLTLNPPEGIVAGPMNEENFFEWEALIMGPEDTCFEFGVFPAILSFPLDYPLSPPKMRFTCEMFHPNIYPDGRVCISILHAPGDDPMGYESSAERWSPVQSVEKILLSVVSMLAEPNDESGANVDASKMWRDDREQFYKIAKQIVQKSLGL

B1: GST fusion of the MARCH-IV RING-CH domain (protein)
chain: WYCYGLCAPAPQMLRHQGLLKCRCRMLFNDLKVFLLRRPPQAPLPMHGDPQPPGLAANNTLPALGAGGWAGWRGPREVVGREPPPVPPPPPLPPSSVEDDWGGPATEPPASLLSSASSDDFCKEKTEDRYSLGSSLDSGMRTPLCRICFQGPEQGELLSPCRCDGSVKCTHQPCLIKWISERGCWSCELCYYKYHVIAISTKNPLQWQAISLTVIEKVQ
B2: GST fusion of the MARCH-I RING-CH domain (protein)
chain: MTSSHVCCNFLNMWKKSKISTMYYLNQDAKLSNLFLQASSPTTGTAPRSQSRLSVCPSTQDICRICHCEGDEESPLITPCRCTGTLRFVHQSCLHQWIKSSDTRCCELCKYDFIMETKLKPLRKWEKLQMTTSERRK
B3: GST-ICP0-RING (amino acids 1-241 of ICP0) (protein)
chain: MEPRPGASTRRPEGRPQREPAPDVWVFPCDRDLPDSSDSEAETEVGGRGDADHHDDDSASEADSTDTELFETGLLGPQGVDGGAVSGGSPPREEDPGSCGGAPPREDGGSDEGDVCAVCTDEIAPHLRCDTFPCMHRFCIPCMKTWMQLRNTCPLCNAKLVYLIVGVTPSGSFSTIPIVNDPQTRMEAEEAVRAGTAVDFIWTGNQRFAPRYLTLGGHTVRALSPTHPEPTTDEDDDDLDD

What was measured:
UbCH2, P62256 = target: T1, UbCH2, P62256
[1] = target: three human E2 enzymes UbCH2, UbCH3 and UbCH5a (at least one of these three enzymes)
GST-MmUbc6 = target: T2, GST-MmUbc6
GST-MmUbc7, P60605 = target: T3, GST-MmUbc7, P60605

Chain of GST-UbCH5a, P51668 (P51668 whole entry): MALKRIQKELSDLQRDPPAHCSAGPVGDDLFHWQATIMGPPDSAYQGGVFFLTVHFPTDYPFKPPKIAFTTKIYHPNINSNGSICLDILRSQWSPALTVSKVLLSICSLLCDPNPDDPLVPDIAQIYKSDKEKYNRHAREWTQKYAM

| Protein | formation of high-molecular weight ubiquitin complexes in vitro (anti-ubiquitin blot) (UbCH2, P62256) | formation of high-molecular weight ubiquitin complexes in vitro (anti-ubiquitin blot) [1] | formation of high-molecular weight ubiquitin complexes in vitro (anti-ubiquitin blot) (E2 enzymes tested) | promotion of ubiquitination in vitro (GST-MmUbc6) | promotion of ubiquitination in vitro (GST-MmUbc7, P60605) | formation of high-molecular weight ubiquitin complexes in vitro (anti-ubiquitin blot) (GST-UbCH5a, P51668) | formation of high-molecular weight ubiquitin complexes in vitro (anti-ubiquitin blot) (GST-MmUbc6) |
| --- | --- | --- | --- | --- | --- | --- | --- |
| B1 | MARCH-IV was mostly active with UbCH2 | The RiNG-CH-GST fusion proteins of all four MARCH-proteins tested were able to catalyze the formation of high-molecular weight molecular ubiquitin complexes in the presence of at least one of these three enzymes |  |  |  |  |  |
| B2 |  | The RiNG-CH-GST fusion proteins of all four MARCH-proteins tested were able to catalyze the formation of high-molecular weight molecular ubiquitin complexes in the presence of at least one of these three enzymes | MARCH-I was less active with most E2 enzymes tested with the notable exception of UbCH5a | MARCH-I was only active with MmUbc6 | Whereas MARCH-II was able to function with both proteins, MARCH-I was only active with MmUbc6 | MARCH-I was less active with most E2 enzymes tested with the notable exception of UbCH5a |  |
| B3 |  |  |  |  |  | ICPO promoted the formation of high-molecular weight complexes in the presence of the E2 enzyme ubCH5a | The ICP0-RING domain also showed some activity with the murine ER-bound E2 enzyme MmUbc6 |
